Laboratory results reported in publication PMC9266650.

Target: T148-ADP-ribosylated-actin (100% TccC3-ADP-ribosylated actin) (not stated (purified from rabbit or chicken skeletal muscle)), P68135
Conditions: remark: other sources report otherwise

other: 15 fold
B1: Actin-depolymerizing factor, P60981 1-165 (natural protein)
chain: MASGVQVADEVCRIFYDMKVRKCSTPEEIKKRKKAVIFCLSADKKCIIVEEGKEILVGDVGVTITDPFKHFVGMLPEKDCRYALYDASFETKESRKEELMFFLWAPELAPLKSKMIYASSKDAIKKKFQGIKHECQANGPEDLNRACIAEKLGGSLIVAFEGCPV
